# Data: article PMC11459465
# Tests used:
# [1] = target: JR-FL IDL trimer (HIV-1 strain JR-FL (clade B)); test: cryo-EM structure
# [2] = target: BG505 IDL trimer (HIV-1 strain BG505 (clade A)); test: cryo-EM structure
# [3] = target: BG505 IDL trimer (HIV-1 strain BG505 (clade A)); test: negative-staining electron microscopy
# [4] = target: WITO IDL trimer (HIV-1 strain WITO (clade B)); test: cryo-EM structure
substance,measurement,setting,value
JR-FL IDL trimer (complex),stoichiometry N,[1],3
BG505 IDL trimer (complex),stoichiometry N,[2],3
same,stoichiometry N,[3],3
WITO IDL trimer (complex),stoichiometry N,[4],3
